Values quoted from earlier work as cited in patent EP0759087B1, “COMPOSITIONS AND METHODS FOR TARGETING GENE DELIVERY VEHICLES” (CHIRON CORPORATION, priority 1994, dated 1995).
Where no end group is shown, it is not given here.

Target: receptor on melanocytes (Homo sapiens, UniProt Q01726)
Conditions: no source given, read-out: receptor affinity (KD)

Chain of receptor on melanocytes (Q01726 whole entry): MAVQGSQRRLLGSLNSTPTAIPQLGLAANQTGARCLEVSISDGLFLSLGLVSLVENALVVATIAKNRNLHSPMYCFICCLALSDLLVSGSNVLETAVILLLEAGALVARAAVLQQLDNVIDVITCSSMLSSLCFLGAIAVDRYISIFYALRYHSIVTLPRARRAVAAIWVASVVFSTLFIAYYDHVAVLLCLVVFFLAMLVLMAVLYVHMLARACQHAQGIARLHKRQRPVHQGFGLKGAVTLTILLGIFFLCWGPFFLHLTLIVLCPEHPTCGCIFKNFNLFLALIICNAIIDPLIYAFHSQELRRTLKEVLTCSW

Kd: ~10 nM
Substance: S-Y-S-M-E-H-F-R-W-G-L-P-V-NH2 (SYSMEHFRWGLPV-NH2) [MSH, 13 amino acid peptide that is specifically recognized by a receptor on melanocytes]
